Reference: patent US20230303695A1 (SHANGHAI XBH BIOTECHNOLOGY, published 2023)
Where a chain is given by its changes, count along the chain named. In names and notes the source's numbering stands.

B1: Antibody C1 (antibody, V domains shown)
VH: QVQLLQSGGGLVQPGGSLRLSCAASGFTFSRYRMSWVRQAPGKGLEWVSRISRSGGATAYADSVKGRFTISRDNSKNTLYLQMNSLRAEDTAVYYCARDATGRHYNGMDVWGRGTLVTVSS
VL: EIALTQSPSSLSASVGDRVTITCRASQTITRHLNWFQQKPGKAPNLLIHGTSALQTGVPPRFSGGGSGTDFTLTINSLQPEDFGTYYCQQSHTKPWTFGPGTKVEIKR
notes: also called anti-IGSF8 C1
B2: Antibody C2 (antibody, V domains shown)
VH: B1 VH with Q1E, R31S, R33P, S35N, A57R, A59S, G102R, R113K, L116T
VL: DVVMTQSPATLSLSPGERASLSCRASRSVGKYLAWYQQKPGQAPRLLFYYASLRAGDIPSRFTASGSGTDFTLTISRLEPEDFAVYYCQQYGSSPRTFGQGTKLEMKR
notes: also called anti-IGSF8 C2
B3: Antibody C7 (antibody, V domains shown)
VH: EVQLEESGGGLVQPGGSLRLSCAASGFTFSSYPMNWVRQAPGKGLEWVSRISRSGGRTSYADSVKGRFTISRDNSKNTLYLQMNSLRAEDTAVYYCARDATRRHYNGMDVWGKGTTVTVSS
VL: B2 VL with D1E, V2T, V3T, M4L
notes: also called anti-IGSF8 C7
B4: Antibody C12 (antibody, V domains shown)
VH: EVQLVESGGGLVQPGGSLRLSCAASGFTFSKYKMSWVRQAPGKGLEWVSTIAPSGGGTRYADSVKGRFTISRDNSKNTLYLQMNSLRAEDTAVYYCARGGHFSNPWGQGTLVTVSS
VL: DVVMTQSPLSLPVTLGQPASISCRSSQSLVHTDGDTYLNWYQQRPGQSPRRLIYKVSKRDSGVPDRFSGSGSGTDFTLKISRVEAEDVGVYYCMQGIKRPYTLGQGTKLEIKR
notes: also called anti-IGSF8 C12
B5: Antibody C10 (antibody, V domains shown)
VH: EVQLLESGGGLVQPGGSLRLSCAASGFTFSRYRMYWVRQAPGKGLEWVSTISRSGGRTVYADSVKGRFTISRDNSKNTLYLQMNSLRAEDTAVYYCARDATGRHYNGMDVWGQGTLVTV
VL: ETTLTQSPATLSVSPGERATLSCRASQSVSSNVAWYQQKPGQAPRLLMFGSGTRATGIPARFSGSGSGTEFTLTISSLQSEDFAAYYCQQYNDWPSFGQGTRVEIKG
notes: also called anti-IGSF8 C10
B6: Antibody C11 (antibody, V domains shown)
VH: EVQLVESGGGLVQPGGSLRLSCAASGFTFSRYRMYWVRQAPGKGLEWVSSISSSGGRTKYADSVKGRFTISRDNSKNTLYLQMNSLRAEDTAVYYCARGVRYCSSPSCSRGPRYAMDVWGKGTTVTVSS
VL: DIQMTQSPSSLSASVGDRVTITCRASYVIRNDLSWYQQKPGKAPKLLIYGTSSLHNGVPSRFSGSGYGTYFTLTISSLQPEDFGTYYCLQDDKYPLTFGGGTKVEIKR
notes: also called anti-IGSF8 C11
B7: Antibody C3 (antibody, V domains shown)
VH: B3 VH with E1Q, E5V, S31H, N35R, R50S, S52R, S59K, R102G
VL: DVVMTQSPSSLSASVGDRVTITCRTSQVIGTSLNWYQQKPGRAPRLLIYSASNLQSGVPSRFSGSGHGTQFTLTISSLQPEDFATYSCQQSSRVPHTFGQGTKLEMRR
notes: also called anti-IGSF8 C3
B8: L1VH-D99N (antibody, V domains shown)
VH: QVQLVESGGGVVQPGRSLRLSCAASGFTFSTYGMHWVRQAPGKGLEWVAVIWDDGSYKYYGDSVKGRFTISRDNSKNTLYLQMNSLRAEDTAVYYCARNGSGWGYAFDIWGQGTMVTVSS
VL: DIQLTQSPSSLSASVGDRVTITCQASQDISEYLNWYQHKPGKAPNPLVFDAANLETGVPPRFSATGSGTDFSLTITSLQPEDFATYYCQQYDSFPYTFGQGTRLDIK
B9: L1-26 (antibody, V domains shown)
VH: B8 VH with N99D, M115L
VL: DIQLTQSPSSLSASVGDRVTITCQASQDISPYLNWYQHKPGKAPKPLVFGSPNLETGVPSRFSASGSGTDFTLTISSLQPEDFATYYCQQYDSFPYTFGQGTKVEIK
B10: L1-32 (antibody, V domains shown)
VH: B8 VH with D54G, N99D, M115L
VL: B9 VL with S30G, Y32W
B11: L1-25 (antibody, V domains shown)
VH: B8 VH with N99D, M115L
VL: B9 VL with Y32W
B12: L1-23 (antibody, V domains shown)
VH: B8 VH with N99D, M115L
VL: B9 VL with S30G, Y32W
B13: L1-21 (antibody, V domains shown)
VH: B8 VH with N99D, M115L
VL: B9 VL with S30G, Y32W, V48I, F49Y, A64G, L73F, F83I
B14: L1-30 (antibody, V domains shown)
VH: B8 VH with N99D, M115L
VL: B9 VL with S30G, Y32W, S51A, P52D
B15: L1-19 (antibody, V domains shown)
VH: B8 VH with N99D, M115L
VL: B9 VL with L4M, H38Q, P46L, V48I, F49Y, G50D, S51A, A64G, L73F, F83I
B16: L1-29 (antibody, V domains shown)
VH: B8 VH with N99D, M115L
VL: B9 VL with S30G, Y32W, G50D, S51A
B17: L1-28 (antibody, V domains shown)
VH: B8 VH with N99D, M115L
VL: B9 VL with S30E, P31W, Y32W, V48I, F49Y, A64G, L73F, F83I
B18: L1-31 (antibody, V domains shown)
VH: B8 VH with D54G, S56K, N99D, M115L
VL: B9 VL with S30G, Y32W, G50R
B19: L1-24 (antibody, V domains shown)
VH: B8 VH with N99D, M115L
VL: B9 VL with S30G
B20: L1-27 (antibody, V domains shown)
VH: B8 VH with N99D, M115L
VL: B9 VL with P31Y, Y32N
B21: L1-16 (antibody, V domains shown)
VH: B8 VH with N99D, M115L
VL: B9 VL with L4M, S30G, Y32W, H38Q, P46L, V48I, F49Y, A64G, L73F, F83I
B22: L1-33 (antibody, V domains shown)
VH: B8 VH with D54G, S56K, N99D, M115L
VL: B9 VL with S30G, Y32W
B23: L1-17 (antibody, V domains shown)
VH: B8 VH with N99D, M115L
VL: DIQMTQSPSSLSASVGDRVTITCQASQDIGPWLNWYQQKPGKAPKLLIYDAPNLETGVPSRFSGSGSGTDFTFTISSLQPEDIATYYCQQYDSFPYTFGQGTKVEIK
B24: L1-22 (antibody, V domains shown)
VH: B8 VH with N99D, M115L
VL: B9 VL with Y32W, V48I, F49Y, A64G, L73F, F83I
B25: L1VL-V48D (antibody, V domains shown)
VH: B8 VH with N99D
VL: B8 VL with V48D
B26: L1VL-Y91F (antibody, V domains shown)
VH: B8 VH with N99D
VL: B8 VL with Y91F
B27: L1VH-W52L (antibody, V domains shown)
VH: B8 VH with W52L, N99D
VL: B8 VL
notes: mutant of the L1 antibody
B28: L1VL-P46L (antibody, V domains shown)
VH: B8 VH with N99D
VL: B8 VL with P46L
B29: L1VL-Q24H (antibody, V domains shown)
VH: B8 VH with N99D
VL: B8 VL with Q24H

What follows are binders tested against T1, IGSF8 extracellular domain (ED) (Homo sapiens (Human), UniProt Q969P0 28-579) (assay: ELISA on IGSF8 extracellular domain).
T1 construct: also called IGSF8 ECD
T1 sequence: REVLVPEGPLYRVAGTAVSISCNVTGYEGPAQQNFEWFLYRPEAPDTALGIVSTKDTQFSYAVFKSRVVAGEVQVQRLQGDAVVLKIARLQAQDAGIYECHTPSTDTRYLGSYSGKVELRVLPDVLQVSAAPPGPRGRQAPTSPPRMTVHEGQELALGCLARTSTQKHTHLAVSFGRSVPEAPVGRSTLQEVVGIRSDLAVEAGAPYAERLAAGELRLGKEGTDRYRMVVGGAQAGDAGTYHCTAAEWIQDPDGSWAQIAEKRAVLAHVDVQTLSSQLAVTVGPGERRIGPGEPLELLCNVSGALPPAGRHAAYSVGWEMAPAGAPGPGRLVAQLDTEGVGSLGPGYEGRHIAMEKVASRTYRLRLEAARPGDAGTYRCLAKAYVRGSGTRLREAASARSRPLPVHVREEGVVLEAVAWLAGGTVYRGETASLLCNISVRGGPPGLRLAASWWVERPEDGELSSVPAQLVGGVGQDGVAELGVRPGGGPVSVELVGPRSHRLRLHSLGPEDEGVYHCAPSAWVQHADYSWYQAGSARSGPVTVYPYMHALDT

Binder | binding result
B1 | binds
B2 | binds
B3 | binds
B4 | binds
B5 | binds
B6 | binds
B7 | binds

What follows are binders tested against T2, recombinant human IGSF8 extracellular domain tagged by a human Fc region (IGSF8-hFc) (human, UniProt Q969P0 28-579, biotin label in Examples 17, 18 and 28 (site not given)) (assay: SPR, Ab captured).
T2 construct: also called IGSF8-Fc fusion protein; IGSF8-hFc-biotin; not shown: human Fc region
T2 sequence: T1 sequence
Method: The binding affinities of the L1 and L2 antibodies to IGSF8 recombinant protein were determined by surface plasmon resonance (SPR). Briefly, anti-human Fab antibody was imobilized on acarboxyl-derivatized SPR chip surface, and the antibodies were captured on the resulting surface at 5 μg/ml for 30 seconds.

Binder | Kd [nM] | koff [s⁻¹] | kon [M⁻¹ s⁻¹]
B8 | 138 | 0.00246 | 17800
B9 | 0.987 | 0.000497 | 503000
B10 | 0.021 | 6.56e-06 | 312000
B11 | 4.46 | 0.0022 | 492000
B12 | 0.00235 | 1.19e-06 | 506000
B13 | 6.71 | 0.00272 | 406000
B14 | 0.00642 | 3.03e-06 | 472000
B15 | 4.58 | 0.000705 | 154000
B16 | 0.0112 | 4.25e-06 | 381000
B17 | 0.00117 | 4.28e-07 | 367000
B18 | 0.00371 | 7.8e-07 | 210000
B19 | 0.0068 | 3.06e-06 | 450000
B20 | 1.88 | 0.000835 | 444000
B21 | 3.33 | 0.00111 | 333000
B22 | 0.029 | 8.01e-06 | 276000
B23 | 3.78 | 0.0012 | 318000
B24 | 2.94 | 0.000363 | 123000
B25 | 708 | 0.023 | 32400
B26 | 321 | 0.00145 | 4500
B27 | 855 | 0.0165 | 19300
B28 | 124 | 0.00341 | 27500
B29 | 144 | 0.00775 | 53700
